Variants at the floor of the assay were thinned out.
B1: TPR 5TU (parent)
chain: GGAUCUUCUCGAUCUAACAAAAAAGACAAAUCUGCCACAAAGCUUGAGAGCAUCUUCGGAUGCAGAGGCGGCAGCCUUCGGUGGCGCGAUAGCGCCAACGUUCUCAACUAUGACACGCAAAACGCGUGCUCCGUUGAAUGGAGUUUAUCAUG

Variants of: B1
Test: polymerase ribozyme fitness, log enrichment relative to wild type (log ratio); higher = more active; in vitro selection for triplet polymerase activity
Method in brief: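 Mutant libraries were PCR-built and transcribed for each subunit of a heterodimeric triplet polymerase ribozyme and selected for one round in triplicate at −7 °C, frozen, before gel excision of extended constructs and streptavidin-bead capture. Input and output libraries were Illumina-sequenced, keeping genotypes with ≥10 input reads and ≥1 read per output. Fitness is a logarithmic ratio of genotype to wild-type enrichment, in base 2, using inverse-variance-weighted replicate averages.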

| Variant | polymerase ribozyme fitness (log ratio) |
| --- | --- |
| C32U C76A G83U G92C C114U C123A | ≤ -4.2 |
| A29U G92A A142C | ≤ -4.2 |
| U9A A12G C14U A23U A40C C76G G86C U90C C118A C131G | ≤ -4.2 |
| G25U A29U C43A A64U C93U C131U | ≤ -4.2 |
| U33G U44A A142G | ≤ -4.2 |
| A73G A106C U111A U144A | ≤ -4.2 |
| A24G C54A A106G | ≤ -4.2 |
| U33A A40C A41U C93G | -3.86 |
| G84A U134G | -2.31 |
| G83C G133A | -3.62 |
| U31A C51G | -0.943 |
| U56C G68U A121G U148A | ≤ -4.2 |
| U7A C75U G94C A122G U145A | -3.63 |
| U56G C114U | -1.85 |
| C10U A37C C75U C95G | ≤ -4.2 |
| A47U G68U | ≤ -4.2 |
| G74A U77A G92U G112U G124A | ≤ -4.2 |
| A29G C51G U56A C93A C95G C149G G152A | ≤ -4.2 |
| A119G U146A | -0.399 |
| A26C C32A U53G U56A C75U U104A U111C A120G | ≤ -4.2 |
| A52G A73G C85U | -0.163 |
| G92A G141A | -2.48 |
| C54U U130G | -3.73 |
| G25C C27G C32U A40C U55A C57A G88U C96U G141A | ≤ -4.2 |

| Variant | polymerase ribozyme fitness (log ratio) |
| --- | --- |
| U55A G140U | -2.9 |
| A20U U33A G83A G86A G100A C149U | ≤ -4.2 |
| A47C C95U | 0.141 |
| A17U A22U A26G G34U C57U G59A C93U | ≤ -4.2 |
| C38U A40U C116U U135A | 0.399 |
| G67U A120U | -2.15 |
| U102G C105U C125U A150C | -4.12 |
| A29G A37U A47U U55A G84U A89G A120C G140C U144G | ≤ -4.2 |
| U55A C57U C85G G94C C99G C149G | ≤ -4.2 |
| C87U G141U | 0.462 |
| A119C U139C | -3.46 |
| A47G G83C U134A G140U | -4.17 |
| C54U A97C | -0.294 |
| A17U C93A G94U A121U A150G | ≤ -4.2 |
| U4G A23C C79A G92C G100A | ≤ -4.2 |
| G48U A106G | -1.48 |
| U56A G59A A97U C149U | -1.48 |
| C69G A119U | -1.72 |
| A89C C103A | -2.11 |
| U78C C85U C103A G141U G152U | ≤ -4.2 |
| U6A A26C A122C | -2.04 |
| C32U A60G A142G | -3.31 |
| C63U U82G G126A G140A | -3.92 |
| C85U C132U | -0.776 |

| Variant | polymerase ribozyme fitness (log ratio) |
| --- | --- |
| A37U C51G G88A | ≤ -4.2 |
| G86U C93G A106G C132U U148A | -3.05 |
| G83U G112U | -4 |
| C38U C54A A60U | -0.76 |
| U9A A17C A20C C54U U55G G58A G67A C116G G143A | ≤ -4.2 |
| A39G G42A G48C A49C G83U C87G C96A A107U | ≤ -4.2 |
| C38G C85A C116A A120G | -2.28 |
| U6C C8U U15G | -2.42 |
| A49C U56A G88U A122C C125U | ≤ -4.2 |
| C5G A37C G81A | -1.37 |
| C54A G65C C93G | ≤ -4.2 |
| U15A A39G U53A A73U C85U G124U U134C U135C | ≤ -4.2 |
| C5G C14G C43G A73G G92U A97C | ≤ -4.2 |
| A3U A23C | -3.76 |
| C14A A29U C96A U101G G133C U144C | ≤ -4.2 |
| A52G C96U A122U | -0.85 |
| C132U U135A | -2.46 |
| A24U A30C G140A | -3.94 |
| G50U A66C C76U U82G A89G A138U | ≤ -4.2 |
| C5A G86C G92U | -3.93 |
| A28C A64U G84A C85G | ≤ -4.2 |
| C96G A122G U139G | 0.0535 |
| A22U A29G A150G | ≤ -4.2 |
| G70A G86A A89G C99A | ≤ -4.2 |

| Variant | polymerase ribozyme fitness (log ratio) |
| --- | --- |
| C14U U55A U56A C76A | -2.4 |
| U56A C96G U139G | -0.96 |
| A122G C125A U134G | -2.92 |
| A21C U55G G83U | -0.166 |
| C32U C85A C99G G133C U139G | ≤ -4.2 |
| C63U A98G G126U C129G | ≤ -4.2 |
| G67A C96A | -3.46 |
| A49C G50C C76U A91U A97U U111C G143C A150U | ≤ -4.2 |
| C8U A20G U33A U56A C95A C131A | ≤ -4.2 |
| G58C A107C | -4.06 |
| A24C A30U A52G G58A G68A U82G C93U A98U G100C C125A G126U | ≤ -4.2 |
| U15G C18A A23C A60G U104G C123G | ≤ -4.2 |
| A22C A24G A52G G68U | ≤ -4.2 |
| C27U A41C A52C C54G C95G U102A | ≤ -4.2 |
| U55A U56A G80U U111A | ≤ -4.2 |
| A40G C96U | -1.81 |
| C18U A37C G68A A107U C125A G140C | ≤ -4.2 |
| C32A | -2.96 |
| C32U | -1.22 |
| A21U A47U C93U | -0.679 |
| A12G C54U C69G U145G | -4.06 |
| G80U C125A | -1.04 |
| A29U U55A A60G G86A U130C | ≤ -4.2 |
| A21C A66G | -3.91 |

| Variant | polymerase ribozyme fitness (log ratio) |
| --- | --- |
| C8U G81U C95U | ≤ -4.2 |
| U13C U53A A91U A107U | ≤ -4.2 |
| C18U A39G U53C C57G C75A U139G A150C | ≤ -4.2 |
| C36A U45C C95U C114U A119U | ≤ -4.2 |
| A19G A98U A115U A120U | -2.62 |
| G62C C85A C99G U151G | ≤ -4.2 |
| G117U A137G | -1.34 |
| A28G U61G C95A A97U A107U | ≤ -4.2 |
| U4G A19G A23G G59U A66U G141C | ≤ -4.2 |
| C96U C116U G140C U144G | -4.04 |
| A39G G48A C51U U56C G59U A150C | ≤ -4.2 |
| C93A C125U | -2.47 |
| U6G G68A | -3.62 |
| C18G A26C C54A G62A C76G C87A A97C A150U | ≤ -4.2 |
| U53A C96U C103U | -1.14 |
| C63G C95A A110G A122U | -3.22 |
| U44G G65A A66C A91G | ≤ -4.2 |
| G92C C132U | -1.6 |
| G58U U78G C79U G80A C85U C96U A106G A147C | ≤ -4.2 |
| A28G C32U G86C A115G U144G | ≤ -4.2 |
| G68U C69A A113G G117A | ≤ -4.2 |
| C5U A20C A29G A115C U130G C132U U146C | ≤ -4.2 |
| C18G C32G A66U A89G C95G A107U | ≤ -4.2 |
| U44A U53G C105U C116G G141C | ≤ -4.2 |

| Variant | polymerase ribozyme fitness (log ratio) |
| --- | --- |
| G11A C14U U33G U44A C69A C79A C85U A97U | ≤ -4.2 |
| C14U C57U | -1.27 |
| C114U | -1.75 |
| U31A C69A C95A C116G | -2 |
| A16G A20C C69G C149G | -4.02 |
| C76U C95A C96U U151G | ≤ -4.2 |
| G81U C96U | -1.85 |
| C96A C105U A122U | 0.463 |
| A3U C38A C85G C99U G124A | -3.77 |
| A91C A120C | ≤ -4.2 |
| C5A C18G A40U | -0.118 |
| A23C C36U A60C G86A A121U | ≤ -4.2 |
| A40U U55A G86A G133U | ≤ -4.2 |
| G25U G42A A49C G80A C85G C95U C103A | ≤ -4.2 |
| U61C C85A A121G U135A | ≤ -4.2 |
| A21G G25U G50U C54U A73G C93A C108G C129G U135G | ≤ -4.2 |
| C95A C96A | -2.33 |
| C54A G58A G94A A98U | -0.552 |
| G80A C85A A142C | -2.14 |
| A3C G58A C87U | -0.495 |
| C51A C75U C95U A106C G128U | ≤ -4.2 |
| G83C C93U C96A | -1.71 |
| A39G G83A U101A | ≤ -4.2 |
| C35A G58U | -2.81 |

| Variant | polymerase ribozyme fitness (log ratio) |
| --- | --- |
| C69U | -1.03 |
| C76G A91C | ≤ -4.2 |
| C54G U55G | ≤ -4.2 |
| A12C U15G U56A C75U G86U C129A G133U | ≤ -4.2 |
| U55A C57G C87G C93U U104G | ≤ -4.2 |
| A3U G46A A113U | -3.1 |
| A19G C85A | -2.09 |
| A19G C32A A40C U61A C93G A110G | ≤ -4.2 |
| A30U U77A G84U A91C G94C C99G G141C | ≤ -4.2 |
| A21G A52C G83U G84A U90C C95G G100A C103G A107U U139G | ≤ -4.2 |
| C38U C69A U82A G94U | -3.99 |
| G50U C87U G92A | 0.244 |
| G50C C69A C75U | ≤ -4.2 |
| C10A C69U | ≤ -4.2 |
| A60C U61G G92A A110U | -3.93 |
| C5G C85A | -1.7 |
| U9G C18U U45G G48A C76U | ≤ -4.2 |
| C69U C132G G140U | -1 |
| C75G G81U G84C A137U U146C | ≤ -4.2 |
| A52U U55A | -1.7 |
| G59A A60G | -0.0653 |
| C93U G141A U146G | -3.48 |
| A97G C123G C131G | -2.72 |
